The text below walks through data of paper PMC4801485 (Biochemistry, 2015).

Holding throughout (experiment): NMR line shape analysis
One assay addresses human Cyclophilin A (human, UniProt P62937 1-165).
Assay [1] has as its target cyclophilin domain of human Cyclophilin B (residues 39-216) (human, UniProt P23284 39-216).
Assay [2] has as its target cyclophilin domain of human Cyclophilin C (residues 25-212) (human, UniProt P45877 25-212).

cyclophilin domain of human Cyclophilin C (residues 25-212), sequence (P45877 25-212): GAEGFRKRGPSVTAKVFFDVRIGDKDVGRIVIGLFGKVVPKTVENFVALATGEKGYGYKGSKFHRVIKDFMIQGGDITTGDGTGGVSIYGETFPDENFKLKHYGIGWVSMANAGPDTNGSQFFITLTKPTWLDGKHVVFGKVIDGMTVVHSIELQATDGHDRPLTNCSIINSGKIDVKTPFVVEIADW
human Cyclophilin A, sequence (P62937 whole entry, the tested form may be a part): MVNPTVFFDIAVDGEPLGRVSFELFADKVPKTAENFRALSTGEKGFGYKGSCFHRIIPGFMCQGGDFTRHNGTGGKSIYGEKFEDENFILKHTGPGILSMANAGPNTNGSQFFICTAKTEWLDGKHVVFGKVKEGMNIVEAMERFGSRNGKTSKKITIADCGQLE
cyclophilin domain of human Cyclophilin B (residues 39-216), sequence (P23284 39-216): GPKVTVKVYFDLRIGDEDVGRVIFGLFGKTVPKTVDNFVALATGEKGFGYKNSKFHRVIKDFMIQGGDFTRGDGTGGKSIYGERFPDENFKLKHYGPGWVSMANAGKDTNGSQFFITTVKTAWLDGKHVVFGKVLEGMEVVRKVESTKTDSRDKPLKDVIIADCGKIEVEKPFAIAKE

Turning to GSFGPDLRAGD [peptide substrate GSFGPDLRAGD], in the assay with human Cyclophilin A, the “koff of the cis isomer (kCD)” value came to 170 s⁻¹, the “koff of the trans isomer (kBA)” value is 550 s⁻¹, the “kon of the cis isomer (kDC)” value came to 1e+07 M⁻¹ s⁻¹ and the “kon of the trans isomer (kAB)” value stood at 3.2e+06 M⁻¹ s⁻¹. Also, in assay [1], the “koff of the cis isomer (kCD)” value came out at 200 s⁻¹, the “koff of the trans isomer (kBA)” value was determined as 960 s⁻¹, the “kon of the cis isomer (kDC)” value is 4.9e+06 M⁻¹ s⁻¹ and the “kon of the trans isomer (kAB)” value is 2.1e+06 M⁻¹ s⁻¹. Further, in assay [2], the “koff of the cis isomer (kCD)” value turned out to be 260 s⁻¹, the “koff of the trans isomer (kBA)” value worked out at 1620 s⁻¹, the “kon of the cis isomer (kDC)” value amounted to 7.9e+06 M⁻¹ s⁻¹ and the “kon of the trans isomer (kAB)” value came out at 4.2e+06 M⁻¹ s⁻¹.
